Results from patent US12365732 (23ANDME, dated 2025).
Changes are numbered by the printed parent chain. Names and notes keep the numbering of the source.

T1: cy-CD96 (soluble, extracellular domain) (cynomolgus monkey, UniProt P40200 22-516 (human entry), biotinylated in Octet and blocking ELISA)
T1 construct: the assays name only cy-CD96; also called biotinylated cy-CD96
T1 chain: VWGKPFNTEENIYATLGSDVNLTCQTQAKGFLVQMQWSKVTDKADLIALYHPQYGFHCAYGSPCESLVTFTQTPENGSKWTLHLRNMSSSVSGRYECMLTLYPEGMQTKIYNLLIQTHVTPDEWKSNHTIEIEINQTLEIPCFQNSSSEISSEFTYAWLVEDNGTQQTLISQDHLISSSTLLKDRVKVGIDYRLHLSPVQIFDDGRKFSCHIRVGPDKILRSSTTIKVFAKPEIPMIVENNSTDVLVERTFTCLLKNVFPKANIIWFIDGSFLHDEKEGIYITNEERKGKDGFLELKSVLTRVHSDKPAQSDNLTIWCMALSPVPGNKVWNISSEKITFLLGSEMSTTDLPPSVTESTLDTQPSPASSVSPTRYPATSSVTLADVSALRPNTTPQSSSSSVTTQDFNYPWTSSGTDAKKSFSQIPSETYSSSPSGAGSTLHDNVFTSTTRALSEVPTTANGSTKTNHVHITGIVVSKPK

T2: mo-CD96 (soluble, Table 5) (mouse, UniProt Q3U0X8 22-536, limits assumed)
T2 sequence (looked up): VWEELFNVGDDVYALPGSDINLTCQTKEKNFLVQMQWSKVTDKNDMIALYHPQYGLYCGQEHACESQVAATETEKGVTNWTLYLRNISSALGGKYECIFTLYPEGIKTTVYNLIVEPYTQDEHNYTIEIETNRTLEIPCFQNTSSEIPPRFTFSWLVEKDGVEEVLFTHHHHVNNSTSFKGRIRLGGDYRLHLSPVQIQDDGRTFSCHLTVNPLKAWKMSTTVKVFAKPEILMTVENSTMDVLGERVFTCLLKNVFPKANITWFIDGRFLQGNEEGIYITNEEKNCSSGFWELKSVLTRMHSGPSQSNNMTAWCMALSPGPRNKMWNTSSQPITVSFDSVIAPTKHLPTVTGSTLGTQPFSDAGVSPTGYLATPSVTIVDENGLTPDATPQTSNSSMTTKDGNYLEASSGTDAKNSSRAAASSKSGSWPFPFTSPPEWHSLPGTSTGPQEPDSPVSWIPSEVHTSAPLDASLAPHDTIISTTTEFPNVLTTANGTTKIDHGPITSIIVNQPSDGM

T3: hu-CD96 (soluble, isoform 2 extracellular domain) (human, UniProt P40200 22-516, biotinylated in Octet and blocking ELISA)
T3 construct: the assays name only hu-CD96; also called hCD96; biotinylated hu-CD96
T3 sequence: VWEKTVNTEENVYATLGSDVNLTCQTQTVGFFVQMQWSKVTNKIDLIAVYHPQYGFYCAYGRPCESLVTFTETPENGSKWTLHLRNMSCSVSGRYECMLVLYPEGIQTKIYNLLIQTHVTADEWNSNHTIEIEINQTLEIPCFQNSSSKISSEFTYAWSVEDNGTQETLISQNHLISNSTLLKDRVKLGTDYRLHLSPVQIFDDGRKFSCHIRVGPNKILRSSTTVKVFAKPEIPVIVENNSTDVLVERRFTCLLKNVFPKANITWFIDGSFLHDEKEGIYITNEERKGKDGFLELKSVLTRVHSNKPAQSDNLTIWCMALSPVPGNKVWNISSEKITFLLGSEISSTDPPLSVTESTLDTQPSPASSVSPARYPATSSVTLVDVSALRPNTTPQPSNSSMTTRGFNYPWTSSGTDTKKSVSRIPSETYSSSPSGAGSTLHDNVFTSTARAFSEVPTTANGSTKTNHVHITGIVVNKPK

B1: mAb1.v7.2 Fab (Fab, V domains shown)
VH: EVQLVQSGAEVKKPGASVKVSCKASGFTFTNNWRHWVRQAPGQGLEWIGMIHFNSGITNINEKFKNRVTMTTDTSTSTAYMELRSLRSEDTAVYYCRSDGVYEGYFDYWGQGTLVTVSS
VL: DIQLTQSPSSLSASVGDRVTITCKASQNVGTAIVWYQQKPGKAPKVLIYSASTRYTGVPSRFSGSGSGTDFTLTISSLQPEDFATYYCQQYSSSPLTFGQGTKVEIK
notes: also called M34R/P52aF/T97V
B2: mAb1.v7.9 Fab (Fab, V domains shown)
VH: B1 VH with F53M
VL: B1 VL
notes: also called M34R/P52aM/T97V
B3: mAb1.v7.16 Fab (Fab, V domains shown)
VH: B1 VH with F53P
VL: B1 VL
notes: also called M34R/T97V
B4: mAb1.v7.48 Fab (Fab, V domains shown)
VH: B1 VH with N32R, R34M, F53H
VL: B1 VL
notes: also called N32R/P52aH/T97V
B5: mAb1.v7.70 Fab (Fab, V domains shown)
VH: B1 VH with N32R, R34M, F53A
VL: B1 VL
notes: also called N32R/P52aA/T97V
B6: mAb1.v7 IgG (humanized 12F8) (antibody, V domains shown)
VH: B1 VH with R34M, F53P, V101T
VL: DIQLTQSPSSLSASVGDRVTITCKASQNVGTAIVWYQQKPGKAPKVLIYSASTRYTGVPSRFSGSGSGTDFTLTISSLQPEDFATYYCQQYSSSPLTFGQGTKVEIKG
notes: human IgG1 N297G
B7: h10G1 IgG (humanized 10G1) (antibody, V domains shown)
VH: EIQLVQSGSELKKPGASVKVSCKASGYPFTTYGMSWVRQAPGQGLEWMGWINTDSGVPTYADDFKGRFVFSLDTSVSTAYLQISSLKAEDTAVYFCARNIYYGWGNFDYWGQGTLVTVSS
VL: EIVMTQSPDFQSVTPKEKVTITCRASQDIYRNLHWYQQKPDQTPKLLIKHASDSISGIPSRFSGSGSGTDFTLTINSLEAEDAAAYYCLQGYSMPYTFGGGTKVEIKG
notes: human IgG1 N297G

Legend:
[1] = biological target: T1, cy-CD96 (soluble, extracellular domain); experiment: ELISA, blocks biotin-CD96 binding to coated hu-CD155-mFc
Protocol: The selected 5 affinity matured Fab variants of mAb1.v7 Fab were assayed for blocking of human CD155 (hu-CD155) receptor by ELISA as follows. Briefly, 96-well MAXISORP® flat bottom plates (Thermofisher, Cat #439454) were coated overnight at 4° C. with 2 µg/mL goat anti-mouse Fc (Thermofisher, Cat #31168) in PBS. After removing the coating solution, unspecific binding was blocked with PBS containing 1% bovine serum albumin (BSA) and incubation at room temperature for one hour. Plates were then washed five times in PBS with 0.05% TWEEN®-20 (wash buffer) and added […] hu-CD155-mFc in PBS for 1 hour in room temperature. During blocking period, 50 µL/well of 4 nM biotinylated hu-CD96 or 40 nM biotinylated cy-CD96 with serial dilution of the Fab variants 50 µL/well (starting at 2 µM, 1:3 dilution) for two hours at room temperature with PBS containing 0.5% BSA and 0.05% Tween 20 (ELISA buffer) in NUNC F plate (Thermofisher, Cat #269620). Then transferred the antigen-antibody mix solution 80 µL/well into hu-CD155-mFc coated wells at room temperature for 15 min. Plates were then washed with wash buffer to which was added 50 µL/well Streptavidin poly-HRP (Thermofisher, Cat #21140) diluted 1:5000 in ELISA buffer at room temperature for one hour with agitation. […] Enzymatic color development was stopped with 50 µL/well of TMB stop solution (VWR, Cat #95059-200). Plates were analyzed with a SpectraMax i3X plate reader (Molecular Devices) at 450 nm. […] The blocking $IC50$ values for the mAbv1.7 and the 5 selected affinity matured Fab variants (mAb1.v7.2, mAb1.v7.9, mAb1.v7.16, mAb1.v7.48, mAb1.v7.70) are summarized in Table 10 (above).

[2] = biological target: T2, mo-CD96 (soluble, Table 5); experiment: SPR 25C, IgG on Protein A, CD96 analyte
Protocol: (§1) SPR measurement with a BIACORE™ 8K instrument was performed to determine the monovalent binding affinity of mAb1.v7 and h10G1 IgG to hu-CD96, cy-CD96, and mo-CD96. Briefly, antibodies were diluted at 0.5 µg/mL in HBS-P buffer (0.01 M HEPES pH 7.4, 0.15 M NaCl, 0.005% Surfactant P20) and applied to the Protein A chip at 30 µL/min flow rate for 60 s in flow cell 2 (FC2). Then 3-fold serial dilutions of hu-CD96, cy-CD96, or mo-CD96 in HBS-P buffer (0.01 M HEPES pH 7.4, 0.15 M NaCl, 0.005% surfactant P20) from (0.4 nM) to high (100 nM) were injected (flow rate: 30 µL/min) at 25° C. to both flow cell 1 (FC1) and flow cell 2 (FC2). The sensorgram was recorded and subject to reference and buffer subtraction before evaluating by BIACORE® 8K Evaluation Software (version 1.1.1.7442). Association rates ($kon$) and dissociation rates ($koff$) were calculated using a simple one-to-one Langmuir binding model.

[3] = biological target: T3, hu-CD96 (soluble, isoform 2 …); experiment: SPR 25C, IgG on Protein A, CD96 analyte
Protocol: as §1

Binder | IC50 [1] | other results
B1 | 2.17 nM | –
B2 | 3.18 nM | –
B3 | 1.42 nM | –
B4 | 4.8 nM | –
B5 | 2 nM | –
B6 | – | Kd [2]: ~386 nM; Kd [3]: 4.49 nM
B7 | – | binding result [2]: no binding (tested: 100 nM highest); apparent Kd (pooled screen) [3]: 1.17 nM
